Common to all, as to assay: Kinase Profiling Assay
Conditions in all cases: 100 μM

Experiment [1] addresses Abl (H396P) (h) (Homo sapiens, UniProt P00519, H396P). The class given is biochemical. In a few lines:
(§1)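 Duplicate wells; [radiolabeled] ATP phosphate onto cationic substrate; filter capture (negatively charged membrane); scintillation count; % of 100% activity control. Selectivity screen of MK2 peptide inhibitors, 266 human kinases.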

Experiment [2] concerns the target Abl (M351T) (h) (Homo sapiens, UniProt P00519, M351T). The class given is biochemical. In a few lines:
as §1

Experiment [3] concerns the target T1, CK1γ3 (h) (Homo sapiens, UniProt Q9Y6M4).
T1 construct: purchased Millipore
In kind it is biochemical. The gist of the method: as §1

In experiment [4] the target is T2, EGFR(T790M) (h) (Homo sapiens, UniProt P00533, T790M).
T2 construct: purchased Millipore
In kind it is biochemical. The gist of the method:
as §1

Experiment [5] deals with T3, HIPK3 (h) (Homo sapiens, UniProt Q9H422).
T3 construct: purchased Millipore
T3 sequence (Q9H422 whole entry): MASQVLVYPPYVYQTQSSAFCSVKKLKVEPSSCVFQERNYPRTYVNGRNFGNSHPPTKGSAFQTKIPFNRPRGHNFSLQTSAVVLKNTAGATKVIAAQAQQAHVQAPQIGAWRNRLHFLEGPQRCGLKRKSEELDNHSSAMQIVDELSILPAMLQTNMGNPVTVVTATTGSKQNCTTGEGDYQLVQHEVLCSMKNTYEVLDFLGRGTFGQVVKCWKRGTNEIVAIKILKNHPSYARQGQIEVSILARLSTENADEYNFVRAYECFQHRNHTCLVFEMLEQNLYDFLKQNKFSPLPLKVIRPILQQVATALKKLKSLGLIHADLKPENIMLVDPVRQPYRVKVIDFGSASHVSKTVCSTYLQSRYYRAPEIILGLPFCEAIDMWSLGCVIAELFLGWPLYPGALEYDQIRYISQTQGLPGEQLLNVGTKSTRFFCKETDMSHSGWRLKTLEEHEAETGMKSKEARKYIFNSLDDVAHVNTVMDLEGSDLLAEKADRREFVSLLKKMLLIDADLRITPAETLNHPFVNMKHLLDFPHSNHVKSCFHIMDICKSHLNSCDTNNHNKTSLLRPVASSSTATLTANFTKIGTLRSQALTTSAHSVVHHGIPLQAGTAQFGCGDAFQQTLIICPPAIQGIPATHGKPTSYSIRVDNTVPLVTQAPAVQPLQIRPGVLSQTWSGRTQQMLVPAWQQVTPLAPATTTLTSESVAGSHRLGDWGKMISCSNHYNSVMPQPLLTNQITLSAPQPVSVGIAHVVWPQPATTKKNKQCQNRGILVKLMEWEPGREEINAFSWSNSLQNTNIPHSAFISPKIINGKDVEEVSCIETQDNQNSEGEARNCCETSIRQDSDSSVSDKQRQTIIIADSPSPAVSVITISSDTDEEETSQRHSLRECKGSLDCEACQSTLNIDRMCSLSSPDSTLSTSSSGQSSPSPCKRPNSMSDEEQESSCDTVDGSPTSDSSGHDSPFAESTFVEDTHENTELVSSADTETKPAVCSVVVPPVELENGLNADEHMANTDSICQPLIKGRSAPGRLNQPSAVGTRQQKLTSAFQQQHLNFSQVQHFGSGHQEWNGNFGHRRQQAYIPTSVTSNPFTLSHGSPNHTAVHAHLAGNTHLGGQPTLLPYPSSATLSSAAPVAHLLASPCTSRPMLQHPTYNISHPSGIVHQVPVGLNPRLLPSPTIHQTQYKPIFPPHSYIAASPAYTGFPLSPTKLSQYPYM
In kind it is biochemical. In a few lines:
as §1

The target in experiment [6] is Lck (h) (Homo sapiens, UniProt P06239). In kind it is biochemical. In a few lines: as §1
Chain of Lck (h) (P06239 whole entry): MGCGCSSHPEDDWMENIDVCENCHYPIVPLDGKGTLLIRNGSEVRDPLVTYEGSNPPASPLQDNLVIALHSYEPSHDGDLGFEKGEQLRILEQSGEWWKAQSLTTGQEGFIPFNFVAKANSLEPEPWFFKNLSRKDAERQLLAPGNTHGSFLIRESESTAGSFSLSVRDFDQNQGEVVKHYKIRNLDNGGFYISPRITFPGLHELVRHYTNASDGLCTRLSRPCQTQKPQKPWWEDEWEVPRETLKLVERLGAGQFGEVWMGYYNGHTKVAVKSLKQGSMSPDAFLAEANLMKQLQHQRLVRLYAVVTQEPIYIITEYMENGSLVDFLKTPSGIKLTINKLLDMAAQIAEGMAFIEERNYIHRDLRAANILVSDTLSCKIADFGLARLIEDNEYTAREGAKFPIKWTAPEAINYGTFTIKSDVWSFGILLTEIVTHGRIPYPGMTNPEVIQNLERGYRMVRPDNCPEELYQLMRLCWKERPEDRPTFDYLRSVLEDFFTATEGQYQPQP
Experiment [7] addresses T4, MKK7β (h) (Homo sapiens, UniProt O14733).
T4 construct: purchased Millipore
T4 sequence (O14733 1-419): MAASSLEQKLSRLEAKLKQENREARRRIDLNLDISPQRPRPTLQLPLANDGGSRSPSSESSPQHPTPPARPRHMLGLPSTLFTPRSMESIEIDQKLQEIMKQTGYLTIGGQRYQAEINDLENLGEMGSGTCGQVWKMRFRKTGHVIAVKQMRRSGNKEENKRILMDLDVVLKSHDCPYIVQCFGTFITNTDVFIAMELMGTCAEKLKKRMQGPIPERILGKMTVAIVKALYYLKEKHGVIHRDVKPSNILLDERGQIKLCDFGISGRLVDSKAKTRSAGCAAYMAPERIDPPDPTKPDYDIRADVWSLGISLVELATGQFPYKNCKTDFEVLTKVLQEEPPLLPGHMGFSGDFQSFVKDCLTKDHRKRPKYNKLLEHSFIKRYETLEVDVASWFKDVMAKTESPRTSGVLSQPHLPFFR
The class given is biochemical. The gist of the method:
as §1

Experiment [8] has as its target T5, PAK3 (h) (Homo sapiens, UniProt O75914).
T5 construct: purchased Millipore
The class given is biochemical. The gist of the method:
as §1

In experiment [9] the test system is SGK (h). In kind it is biochemical, human. As for the experimental part:
Every kinase activity measurement was conducted in duplicate.
Specifically, in these assays, a positively charged substrate is phosphorylated with a radiolabeled phosphate group from an ATP if the kinase is not inhibited by an inhibitor peptide. The positively charged substrate then is attracted to a negatively charged filter membrane, quantified with a scintillation counter, and compared to a 100% activity control.
In addition to determining the IC50 of the compound, the specificity of MK2 inhibitory peptides was assessed by examining activities of all 266 human kinases available for testing in the Millipore kinase profiling service (Table 1).

For experiment [10], the target named is T6, CK2α2 (h) (Homo sapiens, UniProt P19784).
T6 construct: purchased Millipore
T6 sequence (P19784 whole entry): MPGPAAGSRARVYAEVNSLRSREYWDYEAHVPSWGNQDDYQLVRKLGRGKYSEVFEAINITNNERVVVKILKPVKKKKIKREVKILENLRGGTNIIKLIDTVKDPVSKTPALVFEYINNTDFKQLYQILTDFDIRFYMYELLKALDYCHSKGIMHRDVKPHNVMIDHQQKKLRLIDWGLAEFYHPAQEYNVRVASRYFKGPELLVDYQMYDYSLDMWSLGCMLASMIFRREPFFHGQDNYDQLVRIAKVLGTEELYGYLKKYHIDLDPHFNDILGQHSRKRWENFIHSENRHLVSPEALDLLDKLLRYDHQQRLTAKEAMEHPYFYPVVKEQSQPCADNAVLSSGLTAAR
The class given is biochemical. In a few lines:
as §1

The target of experiment [11] is T7, GRK5 (h) (Homo sapiens, UniProt P34947).
T7 construct: purchased Millipore
T7 sequence (P34947 whole entry): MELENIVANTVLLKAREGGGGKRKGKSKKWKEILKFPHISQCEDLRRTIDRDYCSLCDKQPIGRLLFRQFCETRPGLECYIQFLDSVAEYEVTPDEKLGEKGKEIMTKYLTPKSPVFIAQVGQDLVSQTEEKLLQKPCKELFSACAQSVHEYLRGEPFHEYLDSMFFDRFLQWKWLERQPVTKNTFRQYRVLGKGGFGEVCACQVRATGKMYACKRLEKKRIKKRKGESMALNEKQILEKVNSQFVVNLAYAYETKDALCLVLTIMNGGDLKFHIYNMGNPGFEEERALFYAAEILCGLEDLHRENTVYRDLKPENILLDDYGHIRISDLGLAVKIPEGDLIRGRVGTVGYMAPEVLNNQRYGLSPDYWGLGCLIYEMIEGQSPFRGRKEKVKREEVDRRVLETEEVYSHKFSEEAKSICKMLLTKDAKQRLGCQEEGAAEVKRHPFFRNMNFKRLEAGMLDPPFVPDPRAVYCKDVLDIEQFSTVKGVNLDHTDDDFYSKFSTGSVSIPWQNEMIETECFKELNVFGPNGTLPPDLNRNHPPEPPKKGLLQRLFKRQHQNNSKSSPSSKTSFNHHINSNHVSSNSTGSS
The class given is biochemical. In a few lines: as §1

For experiment [12], the target named is T8, JAK3 (h) (Homo sapiens, UniProt P52333).
T8 construct: purchased Millipore
T8 sequence (P52333 1-1124): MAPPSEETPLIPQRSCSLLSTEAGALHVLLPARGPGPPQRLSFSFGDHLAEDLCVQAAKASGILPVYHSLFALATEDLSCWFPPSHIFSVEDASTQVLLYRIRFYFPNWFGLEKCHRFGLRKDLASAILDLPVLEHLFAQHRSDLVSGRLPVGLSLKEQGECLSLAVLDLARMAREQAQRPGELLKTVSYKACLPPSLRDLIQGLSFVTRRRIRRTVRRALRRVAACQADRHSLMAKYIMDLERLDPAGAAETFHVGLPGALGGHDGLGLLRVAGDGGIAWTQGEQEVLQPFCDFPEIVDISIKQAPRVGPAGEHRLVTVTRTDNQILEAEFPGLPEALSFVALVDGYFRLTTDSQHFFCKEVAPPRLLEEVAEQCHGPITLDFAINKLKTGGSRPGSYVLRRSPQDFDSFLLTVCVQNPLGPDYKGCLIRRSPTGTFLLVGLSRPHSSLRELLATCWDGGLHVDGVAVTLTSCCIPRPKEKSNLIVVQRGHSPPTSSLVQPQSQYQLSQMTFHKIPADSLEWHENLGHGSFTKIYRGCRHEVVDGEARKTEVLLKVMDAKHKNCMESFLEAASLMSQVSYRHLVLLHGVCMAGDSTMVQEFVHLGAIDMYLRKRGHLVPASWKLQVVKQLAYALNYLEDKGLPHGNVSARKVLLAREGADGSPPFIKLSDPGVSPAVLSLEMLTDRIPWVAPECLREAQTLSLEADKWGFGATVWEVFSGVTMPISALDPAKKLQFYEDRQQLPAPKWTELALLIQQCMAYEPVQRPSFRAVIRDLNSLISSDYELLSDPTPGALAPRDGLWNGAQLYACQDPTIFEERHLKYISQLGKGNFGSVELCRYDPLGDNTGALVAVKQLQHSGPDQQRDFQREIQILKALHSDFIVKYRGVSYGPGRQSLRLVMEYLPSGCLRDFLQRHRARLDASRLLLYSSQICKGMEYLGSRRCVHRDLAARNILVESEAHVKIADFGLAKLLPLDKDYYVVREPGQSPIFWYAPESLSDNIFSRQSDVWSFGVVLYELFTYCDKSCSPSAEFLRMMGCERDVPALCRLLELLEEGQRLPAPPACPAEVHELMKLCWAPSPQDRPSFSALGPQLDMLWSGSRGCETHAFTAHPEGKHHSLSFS
The class given is biochemical. In a few lines:
as §1

Experiment [13] deals with MAPK1 (h) (Homo sapiens, UniProt P27361). The class given is biochemical. In a few lines:
as §1

The target in experiment [14] is T9, PDGFRα (D842V) (h) (Homo sapiens, UniProt P16234, D842V).
T9 construct: purchased Millipore
T9 sequence (P16234 24-1089 D842V): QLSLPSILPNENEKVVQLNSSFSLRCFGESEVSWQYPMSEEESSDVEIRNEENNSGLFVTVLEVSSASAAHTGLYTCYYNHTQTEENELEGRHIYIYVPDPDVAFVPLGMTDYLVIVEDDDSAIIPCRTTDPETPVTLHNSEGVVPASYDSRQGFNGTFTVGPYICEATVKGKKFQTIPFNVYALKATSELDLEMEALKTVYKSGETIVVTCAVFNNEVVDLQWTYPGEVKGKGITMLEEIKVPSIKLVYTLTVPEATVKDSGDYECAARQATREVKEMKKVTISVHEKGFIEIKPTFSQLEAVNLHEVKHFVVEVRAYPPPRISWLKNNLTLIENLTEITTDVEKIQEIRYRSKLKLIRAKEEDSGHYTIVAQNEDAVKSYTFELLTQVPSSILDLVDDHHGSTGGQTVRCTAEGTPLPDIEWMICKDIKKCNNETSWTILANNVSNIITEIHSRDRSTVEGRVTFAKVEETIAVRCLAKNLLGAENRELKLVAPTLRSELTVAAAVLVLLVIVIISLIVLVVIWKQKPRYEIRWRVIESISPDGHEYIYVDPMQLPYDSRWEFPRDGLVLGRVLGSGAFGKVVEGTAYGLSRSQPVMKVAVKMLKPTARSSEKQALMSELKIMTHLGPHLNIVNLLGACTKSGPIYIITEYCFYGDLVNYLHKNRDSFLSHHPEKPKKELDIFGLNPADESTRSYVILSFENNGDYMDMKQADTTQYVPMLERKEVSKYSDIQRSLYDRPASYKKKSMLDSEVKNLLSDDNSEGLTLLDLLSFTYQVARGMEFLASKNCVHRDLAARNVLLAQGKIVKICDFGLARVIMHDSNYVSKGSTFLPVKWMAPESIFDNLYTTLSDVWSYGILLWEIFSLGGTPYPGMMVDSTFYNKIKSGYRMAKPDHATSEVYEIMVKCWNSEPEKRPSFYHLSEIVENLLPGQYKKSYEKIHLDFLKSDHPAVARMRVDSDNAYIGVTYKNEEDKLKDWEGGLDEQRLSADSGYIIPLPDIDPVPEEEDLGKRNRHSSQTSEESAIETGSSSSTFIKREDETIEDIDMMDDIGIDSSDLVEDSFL
In kind it is biochemical. The gist of the method:
as §1

Experiment [15] addresses Tie2(R849W) (h) (Homo sapiens, UniProt Q02763, R849W). In kind it is biochemical. In a few lines:
as §1

Experiment [16] addresses T10, cKit(V560G) (h) (Homo sapiens, UniProt P10721, V560G).
T10 construct: purchased Millipore
In kind it is biochemical. In a few lines: as §1

Experiment [17] concerns the target T11, PKA (h) (Homo sapiens, UniProt P17612).
T11 construct: purchased Millipore
The class given is biochemical. The gist of the method:
as §1

The text below walks through data of patent US10500249B2, “Compositions and methods for preventing or treating diseases, conditions, or processes characterized by aberrant fibroblast proliferation and extracellular matrix deposition” (MOERAE MATRIX, INC., priority 2014, dated 2019).

T5 sequence (O75914 whole entry): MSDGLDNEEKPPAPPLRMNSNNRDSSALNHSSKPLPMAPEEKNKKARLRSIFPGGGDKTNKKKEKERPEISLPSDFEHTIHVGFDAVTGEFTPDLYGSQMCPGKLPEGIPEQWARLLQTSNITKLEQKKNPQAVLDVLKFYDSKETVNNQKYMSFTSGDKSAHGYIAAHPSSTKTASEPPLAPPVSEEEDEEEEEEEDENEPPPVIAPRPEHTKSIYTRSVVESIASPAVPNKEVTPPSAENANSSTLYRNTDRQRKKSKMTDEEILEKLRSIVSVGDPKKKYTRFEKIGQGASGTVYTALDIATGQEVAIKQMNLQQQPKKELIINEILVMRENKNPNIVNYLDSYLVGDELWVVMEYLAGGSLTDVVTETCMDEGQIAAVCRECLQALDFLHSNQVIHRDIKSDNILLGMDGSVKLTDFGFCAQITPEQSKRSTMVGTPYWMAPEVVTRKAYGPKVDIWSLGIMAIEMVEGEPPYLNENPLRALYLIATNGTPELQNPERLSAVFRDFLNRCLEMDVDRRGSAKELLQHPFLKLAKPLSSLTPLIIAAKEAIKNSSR
Chain of MAPK1 (h) (P27361 whole entry): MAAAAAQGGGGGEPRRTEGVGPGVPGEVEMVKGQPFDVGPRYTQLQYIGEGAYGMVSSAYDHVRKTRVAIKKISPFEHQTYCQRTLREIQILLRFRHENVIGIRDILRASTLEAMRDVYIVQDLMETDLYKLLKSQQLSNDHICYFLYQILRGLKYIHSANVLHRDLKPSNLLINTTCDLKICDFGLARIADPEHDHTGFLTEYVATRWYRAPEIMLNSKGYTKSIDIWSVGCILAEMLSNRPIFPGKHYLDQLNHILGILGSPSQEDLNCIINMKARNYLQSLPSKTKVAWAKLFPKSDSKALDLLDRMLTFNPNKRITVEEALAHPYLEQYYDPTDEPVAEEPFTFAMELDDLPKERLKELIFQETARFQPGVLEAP

In the case of FAKLAARLYRKALARQLGVAA [MMI-0300], the “% activity” value in experiment [1] was 101%; in [2], 90%; in experiment [3], 125%; in [4] it was 100%; in [5], 93%; in experiment [6], −2%. Moreover, the “% activity” value in experiment [7] came out at 100%; in experiment [8], 140%; in [9], 48%.

Regarding KAFAKLAARLYRKALARQLGVAA [MMI-0400], the “% activity” value is given as 96% in experiment [10]; 131% in experiment [11]; 122% in [12]; 100% in [13]; 94% in experiment [7]; 118% in experiment [14]. The “% activity” value in experiment [15] was 108%; in [16] it was 124%; in experiment [9], 54%.

Consider “YARAAARQARAKALNRQLGVA (Mammalian) [MMI-0200]”, for which the “% activity” value in [3] was 96%; in [10] it was 88%; in experiment [11], 135%; in experiment [13], 97%; in experiment [8], 50%; in experiment [17], 110%. Further, the “% activity” value in experiment [15] is on record as 89%; in experiment [9] it was 115%.

As to “HRRIKAWLKKIKALARQLGVAA (Mammalian) [MMI-0500]”, the “% activity” value in [1] is given as 51%; in [2], 61%; in experiment [4], 70%; in [5] it was 85%; in experiment [12], 95%; in experiment [6], 359%. For the same sequence, the “% activity” value in experiment [14] stood at 170%; in experiment [17] it was 118%; in experiment [16], 198%; in experiment [9] it was 2%.
